Laboratory results: US20230381331A1 (HANMI PHARM, published 2023)
Non-standard residues stand in square brackets, D forms with d. No end group written: not given here. Aib = CC(C)(N)C(=O)O

T1: human GIP receptor (human, UniProt P48546 22-466)
T1 sequence (looked up): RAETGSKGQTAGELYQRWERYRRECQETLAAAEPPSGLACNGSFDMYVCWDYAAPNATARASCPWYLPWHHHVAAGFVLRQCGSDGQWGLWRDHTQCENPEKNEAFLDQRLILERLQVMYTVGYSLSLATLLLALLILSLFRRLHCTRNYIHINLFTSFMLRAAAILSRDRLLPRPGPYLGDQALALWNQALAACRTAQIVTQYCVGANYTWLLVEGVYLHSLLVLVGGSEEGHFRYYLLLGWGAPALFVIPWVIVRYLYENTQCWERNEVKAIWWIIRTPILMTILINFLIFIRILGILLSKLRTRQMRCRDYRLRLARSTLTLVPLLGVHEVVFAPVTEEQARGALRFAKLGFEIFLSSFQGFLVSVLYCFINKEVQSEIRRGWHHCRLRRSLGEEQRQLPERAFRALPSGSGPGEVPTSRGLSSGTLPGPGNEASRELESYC

B1: GIP derivative of SEQ ID NO: 11 (peptide)
peptide: Y[Aib]EGTFISDYSIAMDAIAQQDFVNWLLAQKGKKNDWKHNITQC
modifications: not fully specified; printed as YAibEGT FISDYSIAMDAIAQQDFVNWLLAQKGKKNDWKHNITQC

What follows are binders tested against T1, human GIP receptor (assay: cell-based or functional assay).
With B1 the “In vitro activity of GIP derivative compared to human native GIP in human GIP receptor (%) (cAMP EC50, LANCE cAMP kit, CHO cells)” value was 122%. Y[Aib]EGTFISDYSIYLDKQAA[Aib]EFVNWLL[Aib]GGPSSGAPPPSC [GIP derivative of SEQ ID NO: 20] was tested, and the “In vitro activity of GIP derivative compared to human native GIP in human GIP receptor (%) (cAMP EC50, LANCE cAMP kit, CHO cells)” value was 75.3%. With Y[Aib]EGTFISDYSIAMDKIAQQDFVNWLLAQKPSSGAPPPSC (not fully specified) [GIP derivative of SEQ ID NO: 15] the “In vitro activity of GIP derivative compared to human native GIP in human GIP receptor (%) (cAMP EC50, LANCE cAMP kit, CHO cells)” value was 31.1%. In the case of Y[Aib]EGTFISDYSIYLDKQAA[Aib]EFVNWLL[Aib]GHPSSGAPPPSC [GIP derivative of SEQ ID NO: 19], the “In vitro activity of GIP derivative compared to human native GIP in human GIP receptor (%) (cAMP EC50, LANCE cAMP kit, CHO cells)” value is reported as 66.7%. In the case of Y[Aib]EGTFISDYSIALEKQAQQDFVNWLLAGGPSSGAPPPSC [GIP derivative of SEQ ID NO: 17], the “In vitro activity of GIP derivative compared to human native GIP in human GIP receptor (%) (cAMP EC50, LANCE cAMP kit, CHO cells)” value is reported as 111%. Y[Aib]EGTFISDYSI[Aib]LDKQAA[Aib]EFVNWLL[Aib]GGPSSGAPPPSC [GIP derivative of SEQ ID NO: 21] was tested, and the “In vitro activity of GIP derivative compared to human native GIP in human GIP receptor (%) (cAMP EC50, LANCE cAMP kit, CHO cells)” value was 123%. For Y[Aib]EGTFISDYSIYLDKQAA[Aib]EFVQWLIAGHPSSGAPPPC [GIP derivative of SEQ ID NO: 26], the “In vitro activity of GIP derivative compared to human native GIP in human GIP receptor (%) (cAMP EC50, LANCE cAMP kit, CHO cells)” value was 66.7%. Y[Aib]EGTFISDYSIYLDAQAQQDFVNWLLAGGPSSGAPPPSC [GIP derivative of SEQ ID NO: 7] was tested, and the “In vitro activity of GIP derivative compared to human native GIP in human GIP receptor (%) (cAMP EC50, LANCE cAMP kit, CHO cells)” value was 19.6%. With Y[Aib]EGTFISDYSIQMDAIAQQDFVNWLLAGGPSSGAPPPSC [GIP derivative of SEQ ID NO: 5] the “In vitro activity of GIP derivative compared to human native GIP in human GIP receptor (%) (cAMP EC50, LANCE cAMP kit, CHO cells)” value was 12.1%. With Y[Aib]EGTFISDYSI[Aib]MDAIAQQDFVNWLLAGGPSSGAPPPSC [GIP derivative of SEQ ID NO: 3] the “In vitro activity of GIP derivative compared to human native GIP in human GIP receptor (%) (cAMP EC50, LANCE cAMP kit, CHO cells)” value was 15.6%. For Y[Aib]EGTFISDYSIYLDKQAQKEFVNWLL[Aib]GGPSSGAPPPSC [GIP derivative of SEQ ID NO: 23], the “In vitro activity of GIP derivative compared to human native GIP in human GIP receptor (%) (cAMP EC50, LANCE cAMP kit, CHO cells)” value was 87.6%. In the case of Y[Aib]EGTFISDYSIYLDAIAQQDFVNWLLAGGPSSGAPPPSC [GIP derivative of SEQ ID NO: 6], the “In vitro activity of GIP derivative compared to human native GIP in human GIP receptor (%) (cAMP EC50, LANCE cAMP kit, CHO cells)” value is reported as 17.4%. For Y[Aib]EGTFISDYSIYLDKQAA[Aib]EFVNWLLAGHPSSGAPPPSC [GIP derivative of SEQ ID NO: 22], the “In vitro activity of GIP derivative compared to human native GIP in human GIP receptor (%) (cAMP EC50, LANCE cAMP kit, CHO cells)” value was 71.6%. For Y[Aib]EGTFISDYSIYLDKQAA[Aib]EFVNWLLAQKC (not fully specified) [GIP derivative of SEQ ID NO: 13], the “In vitro activity of GIP derivative compared to human native GIP in human GIP receptor (%) (cAMP EC50, LANCE cAMP kit, CHO cells)” value was 31.1%. In the case of Y[Aib]EGTFISDYSIYLDAQAA[Aib]DFVNWLLAGGPSSGAPPPSC [GIP derivative of SEQ ID NO: 8], the “In vitro activity of GIP derivative compared to human native GIP in human GIP receptor (%) (cAMP EC50, LANCE cAMP kit, CHO cells)” value is reported as 1.9%. For Y[Aib]EGTFISDYSIYMDAIAQQDFVNWLLAGGPSSGAPPPSC [GIP derivative of SEQ ID NO: 4], the “In vitro activity of GIP derivative compared to human native GIP in human GIP receptor (%) (cAMP EC50, LANCE cAMP kit, CHO cells)” value was 10.5%. With Y[Aib]EGTFISDYSIAMDAIAQQDFVNWLLAGGPSSGAPPPSC [GIP derivative of SEQ ID NO: 2] the “In vitro activity of GIP derivative compared to human native GIP in human GIP receptor (%) (cAMP EC50, LANCE cAMP kit, CHO cells)” value was 13.9%. Y[Aib]EGTFISDYSIYLDKQAA[Aib]EFVQWLI[Aib]GGPSSGAPPPSC [GIP derivative of SEQ ID NO: 25] was tested, and the “In vitro activity of GIP derivative compared to human native GIP in human GIP receptor (%) (cAMP EC50, LANCE cAMP kit, CHO cells)” value was 78.3%. In the case of Y[Aib]EGTFISDYSI[Aib]LDKQAA[Aib]EFVNWLL[Aib]GHPSSGAPPPSC [GIP derivative of SEQ ID NO: 24], the “In vitro activity of GIP derivative compared to human native GIP in human GIP receptor (%) (cAMP EC50, LANCE cAMP kit, CHO cells)” value is reported as 183%. In the case of Y[Aib]EGTFISDYSIAMDGIAQQDFVNWLLAQKPSSGAPPPSC (not fully specified) [GIP derivative of SEQ ID NO: 16], the “In vitro activity of GIP derivative compared to human native GIP in human GIP receptor (%) (cAMP EC50, LANCE cAMP kit, CHO cells)” value is reported as 11.3%. For Y[Aib]EGTFISDYSIYLDAQAA[Aib]EFVNWLLAQKC (not fully specified) [GIP derivative of SEQ ID NO: 14], the “In vitro activity of GIP derivative compared to human native GIP in human GIP receptor (%) (cAMP EC50, LANCE cAMP kit, CHO cells)” value was 17.4%. In the case of Y[Aib]EGTFISDYSIAMDAIAQQDFVNWLLAQKPSSGAPPPSC (not fully specified) [GIP derivative of SEQ ID NO: 1], the “In vitro activity of GIP derivative compared to human native GIP in human GIP receptor (%) (cAMP EC50, LANCE cAMP kit, CHO cells)” value is reported as 49.3%. For Y[Aib]EGTFISDYSIYLDKQAA[Aib]EFVNWLLAQKGKKNDWKHNITQC (not fully specified) [GIP derivative of SEQ ID NO: 12], the “In vitro activity of GIP derivative compared to human native GIP in human GIP receptor (%) (cAMP EC50, LANCE cAMP kit, CHO cells)” value was 49.2%. In the case of Y[Aib]EGTFISDYSIYLDAQAAKDFVNWLLAGGPSSGAPPPSC [GIP derivative of SEQ ID NO: 9], the “In vitro activity of GIP derivative compared to human native GIP in human GIP receptor (%) (cAMP EC50, LANCE cAMP kit, CHO cells)” value is reported as 2%. For Y[Aib]EGTFISDYSIYLDKQAAQEFVNWLLAQKPSSGAPPPSC [GIP derivative of SEQ ID NO: 18], the “In vitro activity of GIP derivative compared to human native GIP in human GIP receptor (%) (cAMP EC50, LANCE cAMP kit, CHO cells)” value was 13.6%. With Y[Aib]EGTFISDYSIYLDAQAAKEFIAWLLAGGPSSGAPPPSC (not fully specified) [GIP derivative of SEQ ID NO: 10] the “In vitro activity of GIP derivative compared to human native GIP in human GIP receptor (%) (cAMP EC50, LANCE cAMP kit, CHO cells)” value was 13.9%.
